Measured values taken from the supplement of paper PMC10567573.

B1: MYL5 (parent)
chain: FQFASIDVAGNLDYKALSYVITHG
B2: TRIM9 (parent)
chain: CVQCKMPVCYQCLEEGKHSSHEVK

Variants of: B1
Assay: protein stability index of a GFP-peptide fusion (GPS, HEK-293T) (PSI 1-6); higher = more stable
Details: c terminus: a fixed tail appended
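Also: lentivirally expressed fusions sorted by FACS into six bins by GFP to DsRed ratio, PSI derived from sequencing read proportions per bin multiplied by bin number.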

Protein stability index of substitutions, site by site:
V8: N 2.44 | P 2.55
Y19: K 1.06 | H 2.35 | N 2.41 | P 1.43 | G 3.74
V20: G 2.81 | R 2.46 | Y 1.3 | S 3.47
A4: F 2.42 | E 2.51 | Q 3.96 | D 1.9 | L 4.51
G24: F 2.42 | Q 2.05 | L 3.92
T22: K 2.22 | Q 2.54 | A 2.03
I21: Y 1.65 | G 2.37 | D 2.57 | H 1.53
F3: E 1.56 | S 1.93 | Y 2.59 | Q 2.32 | T 1.22 | N 1.36 | C 2.41 | I 2.29
K15: R 2.16 | H 2.12 | D 2.81 | I 2.98
S5: I 4.16
L17: F 2.71 | S 3.25 | T 2.2 | G 2.72 | A 2.49 | C 3.94
D7: C 3.48 | A 2.72 | N 2.8 | S 3.9
F1: C 3.5 | W 3.55 | N 1.61 | I 3.26 | E 1.23
N11: K 2.17 | T 2.92 | W 2.82 | A 2.52 | E 2.83 | Q 5.1
D13: N 3.69 | L 2.49 | T 2.23
H23: P 2.56 | A 2.01 | L 2.78 | D 2.25 | Q 3.48
G10: I 2.02 | N 2.84 | A 2.49 | V 2.6 | P 2.92
I6: G 1.26 | D 1.4 | A 2.72
A16: N 1.91
Q2: N 3.37 | M 2.75 | K 2.89 | C 3.59 | D 4.24 | E 4.45 | F 2.36
Y14: M 2.4 | A 1.82
S18: L 1.83 | Q 1.49
A9: M 3.38 | K 2.71 | Q 1.91 | F 2.33
L12: Q 3.21 | T 1.83 | K 1.98

Variants of: B2
Assay: as above
Details: c terminus: a fixed tail appended

Protein stability index: each site, then its substitutions
L13: F 3.86 | A 4.22 | S 4.7 | R 4.13 | D 4.04 | M 4.21 | G 4.81 | V 4.45 | I 4.08 | K 4.53 | Q 4.48 | W 4.7 | Y 3.48 | H 4.55 | E 4.16 | C 4.88 | T 3.08 | N 3.46 | P 4.47
V23: P 4.24 | T 3.84 | Q 3.85 | F 3.65 | S 3.37 | C 4.65 | M 4 | H 3.32 | E 4.28 | L 3.16 | Y 3.46 | K 3.68 | R 3.24 | D 4.44 | W 3.38 | A 4.37 | G 3.84 | N 3.98 | I 3.7
E15: M 3.75 | K 3.67 | N 3.82 | S 3.81 | F 2.82 | I 3.82 | A 4.08 | R 3.47 | C 4.14 | T 3.69 | D 4.07 | H 3.36 | G 4.15 | W 2.72 | Q 3.76 | Y 3.36 | V 3.47 | P 3.88 | L 3.65
E22: I 3.8 | A 3.57 | W 3.11 | K 4.31 | T 4 | V 4.17 | L 3.74 | R 3.12 | P 3.33 | M 3.65 | F 3.56 | G 3.32 | Y 3.28 | Q 2.73 | H 3.79 | N 3.67 | S 3.68 | D 3.29 | C 4.27
G16: N 4.09 | F 3.73 | W 2.8 | A 4.02 | K 3.57 | R 3.27 | T 3.83 | S 3.7 | I 3.25 | M 3.71 | E 3.94 | Y 3.41 | Q 2.64 | D 4.58 | L 3.49 | V 3.62 | H 3.36 | C 4.33 | P 3.9
H21: C 4.1 | G 4.16 | R 3.36 | I 3.66 | L 3.87 | K 3.76 | F 2.88 | Q 4.16 | P 4.08 | S 3.54 | N 3.75 | D 3.88 | Y 3.14 | M 3.7 | T 4.47 | W 2.96 | V 4.05 | E 4.57 | A 3.15
H18: S 4.42 | P 3.28 | F 3.78 | V 3 | N 3.94 | M 3.93 | K 3.7 | Y 3.55 | G 3.63 | L 3.55 | W 3.04 | R 3.82 | Q 3.47 | T 4.11 | D 4.46 | E 3.56 | C 3.79 | I 3.41 | A 4.04
K24: P 3.62 | Q 3.96 | V 3.8 | E 4.59 | A 4.28 | R 3.46 | H 3.92 | C 4.97 | G 3.19 | M 3.68 | D 4.73 | L 3.8 | Y 3.41 | F 2.85 | I 2.95 | W 2.88 | N 3.89 | T 3.7 | S 3.71
C12: S 4.48 | I 2.28 | M 3.7 | E 4.25 | H 4.34 | N 3.67 | W 2.92 | V 3.45 | F 3.19 | T 3.42 | G 3.81 | Y 3.58 | P 3 | L 3.48 | K 4.8 | Q 4.03
E14: H 3.34 | N 3.66 | G 4.14 | F 2.97 | L 2.93 | Q 4.17 | K 3.99 | P 3.75 | R 3.83 | D 2.99 | C 4.34 | V 3.34 | S 3.68 | I 3.55 | T 3.53 | A 3.12 | M 3.17 | Y 3.15
S20: F 2.59 | R 4.38 | E 3.98 | D 4.3 | N 3.69 | P 4.13 | Q 4.29 | K 4.26 | M 4 | T 4.07 | I 2.9 | L 4.43 | V 3.75 | C 4.32 | A 3.68 | H 4.3 | Y 3.24
S19: Q 4.51 | C 3.85 | V 3.86 | G 3.67 | I 3.4 | A 4.41 | D 3.8 | L 3.89 | H 3.45 | T 4.25 | E 4.62 | N 4.38 | W 3.35 | R 3.73 | K 3.9 | P 4.17 | Y 3.1 | F 3.37 | M 3.72
K17: P 3.75 | A 4.14 | I 3.61 | N 3.65 | Y 3.54 | D 2.88 | S 3.42 | C 3.47 | V 3.81 | G 4.38 | H 4.47 | Q 4.5 | M 3.3 | E 3.89 | L 3.86 | R 2.96 | F 3.1
